The results in this text go back to patent publication US20240216513A1, “FATTY ACID-BIFUNCTIONAL DEGRADER CONJUGATES AND THEIR METHODS OF USE” (Novartis AG, priority 2021, published 2024).

Data set [1] in a line: In vivo pharmacokinetic study in mice (i.v. or s.c.), FAC and payload in blood. The arrangement: species or system mouse. The following applies: male. How it is done:
(§1) Pharmacokinetic studies were conducted in male C57/B16 mice; male Sprague-Dawley rats; male Beagle dogs and male Cynomolgus monkeys. 3 animals per group were used for each study performed. All studies were performed in accordance with local animal welfare regulations.
(§2) […] Serial 30 µL blood samples were collected via venipuncture of the tail vein in mouse, and via the cannulated jugular vein in rats at defined timepoints to 216 hours (into EDTA coated tubes).
(§3) Each blood sample was precipitated with acetonitrile containing internal standard; samples were mixed and centrifuged (20 minutes 4000 RPM at 4° C.). Supernatant was transferred to a microwell plate and evaporated under nitrogen at 60° C. Residue was resuspended in acetonitrile/water (7:3 v/v); plate sealed and transferred to an ultrasonic bath for 3 minutes, prior to analysis. Quantification was performed by LC-MS/MS (SciexAP16500 Q-trap, Shimadzu Nexera X2) using a Phenomenex Polar RP analytical column (2.5 μm particle size; 50×2 mm). The mobile phase consisted of solvent A (0.1% formic acid in water) and solvent B (0.1% formic acid in acetonitrile). The fatty acid conjugate and API were detected using multiple reaction monitoring.
(§4) Data analysis and calculation of non-compartmental pharmacokinetic parameters was
(§5) performed using an in-house analysis. Following intravenous administration whole blood clearance was calculated by the dose administered divided by AUC0-inf. Volume of distribution at steady state was calculated as MRT*CL, where MRT is the mean residence time, calculated by AUMC0-inf/AUC0-inf. The half-life (t1/2) of the terminal elimination phase was calculated by 0.693/λ. For both intravenous and subcutaneous administration, the systemic exposures were determined by calculating the area under the blood concentration time curve (AUC) from time zero to the last observed quantifiable concentration (AUClast) by using the linear trapezoidal method and normalised to dose. Extrapolated AUC (AUC0-inf) is calculated by addition of AUClast and AUCtlast-inf; where AUCtlast-inf is calculated based on Clast/λ. The slope of the terminal elimination phase was estimated by linear regression of the terminal data points (minimum 3 points) from a natural log concentration versus time plot of the data. Bioavailability was calculated as the dose normalized ratio of […] AUCinf to intravenous AUCinf (100*[SC AUCinf/SC dose]/[IV AUCinf/IV dose]). Following subcutaneous administration Cmax is calculated as the average maximum observed peak concentration and Tmax is the time associated with the determined Cmax.
(§6) For PK experiments, non-tumor bearing mice or rats were treated once (10 mL/kg) with a compound either i.v. or s.c. Serial blood samplings from the tail vein (5-20 μl) were collected during the course of the experiment. For PK/PD experiments in tumor-bearing mice, compound was administered once (10 mL/kg) either i.v. or s.c. Animals were randomized into groups of n=3 and tissue samples were collected at several time points. At the times indicated, animals were anaesthetized by exposure to 2-3% v/v isoflurane in medical oxygen. They were sacrificed without recovering from anesthetic after blood sampling into commercially prepared EDTA coated tubes (Milian, cat #TOM-14C) in order to extract plasma. The tissues were excised, weighted and rapidly frozen in liquid nitrogen. Later, tumors were cryogenic dry pulverized with the CryoPrep™ system (model CP-02, Covaris). For efficacy experiments in ectopic tumor-bearing mice, animals were randomized into groups of n=6 for a mean tumor size of 100 mm^3 and compound was administered either i.v. q3w or s.c. q2w. When implanted in brain, animals were randomized into groups of n=4 for a mean bioluminescence of 1.0-2.0E+06 [p/s]/[ρW/cm^2] and compound was administered i.v. qw. Tumor response were reported with the measures of tumor volumes or bioluminescence from the treatment start. […]

Data set [2] addresses T1, BTK (Homo sapiens, UniProt Q06187).
T1 construct: endogenous in cells; host or cells: TMD8 tumour xenografts in SCID/BEIGE mice
As to the kind of experiment: PK/PD in TMD8 tumor-bearing mice: BTK levels in tumor by Meso Scale Discovery. The following applies: for Duration of BTK degradation in mouse ≥90%: I.v. In kind it is in vivo, mouse. As for the experimental part:
(§7) All animal experiments were performed according to procedures covered by permit number BS-1974, BS-1975 and BS-2904 issued by the Kantonales Veterinäramt Basel-Stadt and strictly adhered to the Eidgenössisches Tierschutzgesetz and the Eidgenössische Tierschutzverordnung. Female Sprague Dawley rat were obtained from Charles Rivers (Germany), female Balb/c mice from Charles Rivers (Italy) and female SCID/BEIGE (C.B-Igh-1b/GbmsTac-Prkdcscid-Lystbg N7) mice from Taconic. All the animals were housed in a pathogen-controlled environment with access to food and water ad libitum and they were identified with transponders.
(§8) Subcutaneous TMD8 tumors were induced by injecting tumor cells expanded in vitro in the right flank of SCID/BEIGE mice. As soon as the injection was finished, antagonization (naloxone, flumazenil and atipamezole injected s.c.) was injected and mice are put on a warming pad for recovery and carefully checked during that time.
(§9) For PK experiments, non-tumor bearing mice or rats were treated once (10 mL/kg) with a compound either i.v. or s.c. Serial blood samplings from the tail vein (5-20 μl) were collected during the course of the experiment. For PK/PD experiments in tumor-bearing mice, compound was administered once (10 mL/kg) either i.v. or s.c. Animals were randomized into groups of n=3 and tissue samples were collected at several time points. At the times indicated, animals were anaesthetized by exposure to 2-3% v/v isoflurane in medical oxygen. They were sacrificed without recovering from anesthetic after blood sampling into commercially prepared EDTA coated tubes (Milian, cat #TOM-14C) in order to extract plasma. The tissues were excised, weighted and rapidly frozen in liquid nitrogen. Later, tumors were cryogenic dry pulverized with the CryoPrep™ system (model CP-02, Covaris). For efficacy experiments in ectopic tumor-bearing mice, animals were randomized into groups of n=6 for a mean tumor size of 100 mm^3 and compound was administered either i.v. q3w or s.c. q2w. When implanted in brain, animals were randomized into groups of n=4 for a mean bioluminescence of 1.0-2.0E+06 [p/s]/[ρW/cm^2] and compound was administered i.v. qw. Tumor response were reported with the measures of tumor volumes or bioluminescence from the treatment start. Concentrations of compound in blood and tissues were determined simultaneously by UPLC/MS-MS. BTK and IL-10 levels in tumor were determined by Meso Scale Discovery (MSD).

Data set [3] relates to TMD8 tumors. Nature of the data set: Efficacy in ectopic (subcutaneous) TMD8 tumor-bearing SCID/BEIGE mice, tumor volume. The following applies: I.v. It is filed as in vivo, mouse. As for the experimental part:
as §7, §8, §9

Data set [4] is described as follows: In vivo pharmacokinetic study in Beagle dogs (i.v. or s.c.), FAC and payload in blood. Also noted: species or system dog. As for the experimental part: as §1
(§10) Between 1 and 10 µM/kg FAC was administered either intravenously or subcutaneously as a solution in 10 mM PBS with NaOH (dose volume 0.4 mL/kg in dog and monkey s.c. and 0.2 mL/kg i.v. in monkey). Serial 100 µL blood samples were collected via venipuncture of the cephalic vein at defined timepoints to 336 hours (into EDTA coated tubes).
as §3, §4, §5

Data set [5] in a line: In vivo pharmacokinetic study in rats (i.v. or s.c.), FAC and payload in blood. The following applies: male, Sprague-Dawley, rat, in vivo, sc, 40 umol/kg. Also noted: species or system rat. How it is done: as §1, §2, §3, §4, §5, §6
A short description of data set [6]: In vivo pharmacokinetic study in Cynomolgus monkeys (i.v. or s.c.), FAC and payload in blood. Also noted: species or system cynomolgus monkey. How it is done: as §1, §10, §3, §4, §5
Setting [7] is: C57/B16, mouse, in vivo, sc, 40 umol/kg.

The AUC is the area under the concentration-time curve, a measure of exposure. By Cmax is commonly meant the highest concentration seen after dosing.

T1 sequence (Q06187 whole entry): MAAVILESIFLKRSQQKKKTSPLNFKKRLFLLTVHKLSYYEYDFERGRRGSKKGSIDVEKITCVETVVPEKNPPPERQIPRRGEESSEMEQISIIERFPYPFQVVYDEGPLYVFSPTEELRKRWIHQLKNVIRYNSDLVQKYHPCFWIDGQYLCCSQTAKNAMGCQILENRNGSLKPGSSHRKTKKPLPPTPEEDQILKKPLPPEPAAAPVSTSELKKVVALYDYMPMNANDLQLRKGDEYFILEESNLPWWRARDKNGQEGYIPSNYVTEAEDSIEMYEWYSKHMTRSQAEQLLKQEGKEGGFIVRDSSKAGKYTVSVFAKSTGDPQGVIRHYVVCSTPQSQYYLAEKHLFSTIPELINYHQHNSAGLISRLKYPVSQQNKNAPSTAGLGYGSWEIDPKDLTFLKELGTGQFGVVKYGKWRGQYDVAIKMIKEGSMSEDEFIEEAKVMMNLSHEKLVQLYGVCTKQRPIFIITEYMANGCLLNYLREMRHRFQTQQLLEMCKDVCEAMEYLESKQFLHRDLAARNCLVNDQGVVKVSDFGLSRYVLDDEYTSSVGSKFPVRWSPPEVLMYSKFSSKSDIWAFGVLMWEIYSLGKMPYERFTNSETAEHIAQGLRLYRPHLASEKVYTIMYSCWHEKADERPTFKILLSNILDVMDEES

As for `Cc1c(NC(=O)c2ccc(C(C)(C)O)cc2F)cc(F)cc1-c1ncnc2[nH]c(-c3ccc(CN4CCC(OC5CCN(CCn6cccc(CN7CCC(=O)NC7=O)c6=O)CC5)CC4)cc3)cc12` [Compound N, N-(3-(6-(4-((4-((1-(2-(3-((2,4-Dioxotetrahydropyrimidin-1(2H)-yl)methyl)-2-oxopyridin-1(2H)-yl)ethyl)piperidin-4-yl)oxy)piperidin-1-yl)methyl)phenyl)-7H-pyrrolo[2,3-d]pyrimidin-4-yl)-5-fluoro-2-methylphenyl)-2-fluoro-4-(2-hydroxypropan-2-yl)benzamide], in data set [1] (C57/B16, whole blood, iv, Mouse, unconj. BTK Degrader dosed itself (i.v. per row label), API dose 10 umol/kg, read-out: Payload (BTK Degrader) AUC), the AUC was found to be 9.3 µM·h. Besides, in data set [1] (C57/B16, whole blood, iv, Mouse, unconj. BTK Degrader dosed itself (i.v. per row label), API dose 10 umol/kg, read-out: Payload (BTK Degrader) Cmax), the Cmax stood at 1.6 µM. Further, the “Duration of BTK degradation in mouse ≥90%” value in data set [2] (20 mg/kg (unconjugated N)) was found to be 4 days. In addition, the “Duration of BTK degradation in mouse ≥90% (days)” value in data set [2] (s.c., 10 mg/kg (unconjugated N)) is 1(10 mg/kg) days. In data set [3], the “Dosing to achieve sustained ~90% regression” value turned out to be 20 mg/kg 2qw.

As to `CCCCCCCCCCCC(CCCCCCCCCCC(=O)O)(C(=O)O)C(=O)NCCOCCOCCOCCOCCOCCOCCOCCOCCOCCOCCOCCOCCC(=O)NCC(=O)OC(C)(C)c1ccc(C(=O)Nc2cc(F)cc(-c3ncnc4[nH]c(-c5ccc(CN6CCC(OC7CCN(CCn8cccc(CN9CCC(=O)NC9=O)c8=O)CC7)CC6)cc5)cc34)c2C)c(F)c1` (stereo not shown) [Compound B1, 2-((44-(4-((3-(6-(4-((4-((1-(2-(3-((2,4-Dioxotetrahydropyrimidin-1(2H)-yl)methyl)-2-oxopyridin-1(2H)-yl)ethyl)piperidin-4-yl)oxy)piperidin-1-yl)methyl)phenyl)-7H-pyrrolo[2,3-d]pyrimidin-4-yl)-5-fluoro-2-methylphenyl)carbamoyl)-3-fluorophenyl)-44-methyl-39,42-dioxo-3,6,9,12,15,18,21,24,27,30,33,36,43-tridecaoxa-40-azapentatetracontyl)carbamoyl)-2-undecyltridecanedioic acid], the AUC in data set [1] (setting [7]) is 3860 µM·h; in data set [4] (male, Beagle, whole blood, sc, Dog, Conj. s.c. dose 10 umol/kg, read-out: Lipophilic Acid Conjugate AUC) it was 304 µM·h; in data set [5] (Lipophilic Acid Conjugate AUC) it was 667 µM·h; in data set [6] (male, cynomolgus monkey, whole blood, sc, Cyno, Conj. s.c. dose 1 umol/kg, read-out: Lipophilic Acid Conjugate AUC), 26.1 µM·h. The Cmax was 71 µM in data set [1] (setting [7]); 37.5 µM in data set [4] (male, Beagle, whole blood, sc, Dog, Conj. s.c. dose 10 umol/kg, read-out: Lipophilic Acid Conjugate Cmax); 11 µM in data set [5]; 3.8 µM in data set [6] (male, cynomolgus monkey, whole blood, sc, Cyno, Conj. s.c. dose 1 umol/kg, read-out: Lipophilic Acid Conjugate Cmax). The “Duration of BTK degradation in mouse ≥90%” value in data set [2] (40 umol/kg) is reported as 10 days. For the same compound, the “Fatty Acid Conjugate C0-uM d.n. Dog” value in data set [4] (analyte conjugate, d.n., Conj. i.v. dose 10 umol/kg) is 3.3 µM. The “Fatty Acid Conjugate C0-uM d.n. Cyno” value in data set [6] (analyte conjugate, d.n., Conj. i.v. dose 1 umol/kg) came to 9.9 µM. Also, the “Dosing to achieve sustained ~90% regression” value in data set [3] was 40 umol/kg q3w.

For `CCCCCCCCCCC[C@@](CCCCCCCCCCC(=O)O)(C(=O)O)C(=O)NCCOCCOCCOCCOCCOCCOCCOCCOCCOCCOCCOCCOCCC(=O)NCC(=O)OC(C)(C)c1ccc(C(=O)Nc2cc(F)cc(-c3ncnc4[nH]c(-c5ccc(CN6CCC(OC7CCN(CCn8cccc(CN9CCC(=O)NC9=O)c8=O)CC7)CC6)cc5)cc34)c2C)c(F)c1` (single isomer, unassigned) [Compound B2], in data set [1] (setting [7]), the AUC worked out at 1860 µM·h and the Cmax is 60 µM. Moreover, in data set [2] (40 umol/kg), the “Duration of BTK degradation in mouse ≥90%” value worked out at 10 days. Besides, in data set [3], the “Dosing to achieve sustained ~90% regression” value was found to be 60 umol/kg q3w.

In data set [1] (setting [7]), `CCCCCCCCCCC[C@](CCCCCCCCCCC(=O)O)(C(=O)O)C(=O)NCCOCCOCCOCCOCCOCCOCCOCCOCCOCCOCCOCCOCCC(=O)NCC(=O)OC(C)(C)c1ccc(C(=O)Nc2cc(F)cc(-c3ncnc4[nH]c(-c5ccc(CN6CCC(OC7CCN(CCn8cccc(CN9CCC(=O)NC9=O)c8=O)CC7)CC6)cc5)cc34)c2C)c(F)c1` (single isomer, unassigned) [Compound B3] gave an AUC of 3850 µM·h and a Cmax of 68 µM. Moreover, in data set [2] (40 umol/kg), the “Duration of BTK degradation in mouse ≥90%” value stood at 14 days. For the same compound, the “Dosing to achieve sustained ~90% regression” value in data set [3] turned out to be 20 umol/kg q3w.
